Reference: paper PMC9814548, “Chemoenzymatic synthesis of 3-ethyl-2,5-dimethylpyrazine by L-threonine 3-dehydrogenase and 2-amino-3-ketobutyrate CoA ligase/L-threonine aldolase” (Communications Chemistry, 2021)

T1: CnKBL (Cupriavidus necator, UniProt Q0K313)
T1 construct: gene kbl; gene cloned in pET-28a (NcoI/XhoI), E. coli BL21(DE3), Ni-Sepharose and gel filtration; dimer; PLP on K246
T1 sequence (Q0K313 1-399): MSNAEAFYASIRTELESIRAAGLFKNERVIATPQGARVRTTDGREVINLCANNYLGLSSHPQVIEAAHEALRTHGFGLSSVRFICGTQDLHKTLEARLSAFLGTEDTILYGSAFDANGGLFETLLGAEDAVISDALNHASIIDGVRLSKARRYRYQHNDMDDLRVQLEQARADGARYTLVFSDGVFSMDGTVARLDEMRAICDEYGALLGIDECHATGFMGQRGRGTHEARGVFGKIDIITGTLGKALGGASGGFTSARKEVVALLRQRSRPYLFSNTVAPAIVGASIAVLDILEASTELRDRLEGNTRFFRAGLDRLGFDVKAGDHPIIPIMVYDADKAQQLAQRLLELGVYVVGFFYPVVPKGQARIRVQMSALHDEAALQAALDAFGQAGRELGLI

B1: CnKBL (Cupriavidus necator H16) (protein)
chain: T1 sequence (Q0K313 1-399)
notes: gene cloned in pET-28a (NcoI/XhoI), E. coli BL21(DE3), Ni-Sepharose and gel filtration; dimer; PLP on K246

Columns and labels:
CnKBL = biological target: T1, CnKBL; assay: X-ray crystal structure, […] Å; type: binding; conditions: covalent, Schiff base with K246
purified protein [1] = substrate: CC(=O)SCCNC(=O)CCNC(=O)[C@H](O)C(C)(C)COP(=O)(O)OP(=O)(O)OC[C@H]1O[C@@H](n2cnc3c(N)ncnc32)[C@H](O)[C@@H]1OP(=O)(O)O; assay: purified protein; type: biochemical, Cupriavidus necator; conditions: 100 mM Gly, 50 mM potassium phosphate pH 8.0, 30 °C
purified protein [2] = substrate: C[C@@H](O)[C@H](N)C(=O)O; assay: purified protein; type: biochemical, Cupriavidus necator; conditions: 50 mM potassium phosphate pH 8.0, 30 °C, no CoA
purified protein [3] = substrate: NCC(=O)O; assay: purified protein; type: biochemical, Cupriavidus necator; conditions: 1 mM acetyl-CoA, 50 mM potassium phosphate pH 8.0, 30 °C
purified protein [4] = substrate: CCC(O)C(N)C(=O)O; assay: purified protein; type: biochemical, Cupriavidus necator; conditions: 50 mM potassium phosphate pH 8.0, 30 °C, no CoA
purified protein [5] = substrate: C[C@H](O)[C@H](N)C(=O)O; assay: purified protein; type: biochemical, Cupriavidus necator; conditions: 50 mM potassium phosphate pH 8.0, 30 °C, no CoA

Molecule | X-ray crystal structure, 1.8 Å (CnKBL) | Km (purified protein [1]) | kcat (purified protein [1]) | Km (purified protein [2]) | kcat (purified protein [2]) | kcat/Km (purified protein [2]) | Km (purified protein [3]) | kcat (purified protein [3]) | Km (purified protein [4]) | kcat (purified protein [4]) | kcat/Km (purified protein [4]) | Km (purified protein [5]) | kcat (purified protein [5]) | kcat/Km (purified protein [5])
Cc1ncc(COP(=O)(O)O)c(C=O)c1O [PLP] | only PLP is coordinated at the site by forming a Schiff base with the side chain |  |  |  |  |  |  |  |  |  |  |  |  | 
B1 |  | 242.7 ± 10.4 µM | 3.43 ± 0.036 s⁻¹ | 1.24 ± 0.11 mM | 0.00283 ± 0.0065 s⁻¹ | 2.33 M⁻¹ s⁻¹ | 13.9 ± 0.52 mM | 3.43 ± 0.036 s⁻¹ | 0.20 ± 0.056 mM | 0.00123 ± 7.17e-05 s⁻¹ | 6.17 M⁻¹ s⁻¹ | 0.42 ± 0.086 mM | 0.000778 ± 4.33e-05 s⁻¹ | 1.83 M⁻¹ s⁻¹
